Measured values published in PMC10770758, “Protocatechuate hydroxylase is a novel group A flavoprotein monooxygenase with a unique substrate recognition mechanism” (The Journal of Biological Chemistry, 2023).

Tests used:
O=C(O)c1ccc(O)c(O)c1 = test: purified protein; type: biochemical, Xylophilus ampelinus; details: apparent, 0.25 mM NADPH, 20 mM Tris-HCl pH 7.9, 25 °C
O=C(O)c1ccc(O)cc1 = test: purified protein; type: biochemical, Xylophilus ampelinus; details: apparent, 0.25 mM NADPH, 20 mM Tris-HCl pH 7.9, 25 °C

Substance	Km (O=C(O)c1ccc(O)c(O)c1)	Km (O=C(O)c1ccc(O)cc1)
XaPobA (Xylophilus ampelinus; C347T)	3.2 ± 1.0 × 10^−1 mM	9.1 ± 3.4 × 10^−1 mM
XaPobA (Xylophilus ampelinus; W201Y)	5.0 ± 1.1 × 10^−1 mM	7.2 ± 2.2 × 10^−2 mM
XaPobA (Xylophilus ampelinus; W201A)	6.5 ± 2.7 × 10^−1 mM	
XaPobA (Xylophilus ampelinus; M210A)	9.6 ± 0.3 × 10^−1 mM	
